Kd data for 3 substances are collected here from PMC3985303.

For this assay, the target named is Guinea pig soluble FcRn (guinea pig). The experiment in a line: SPR.
“human IgG2 purified from myeloma (from UniProt P01859)” had a dissociation constant (Kd) of 4.2 µM. Under “human IgG4 purified from myeloma (from UniProt P01861)” stands 6.8 µM; under “human IgG1 purified from myeloma (from UniProt P01857)”, 5.2 µM.
